Results published in paper PMC9249326, “Analgesic effects of nerve growth factor‐directed monoclonal antibody on diabetic neuralgia in an animal model” (FEBS Open Bio, 2022).

Key:
[1] = biological target: T1, NGF-6xHis-biotin (human, UniProt P01138, biotin); experiment: ELISA; blocking ELISA: TrkA-Fc (2 ug/mL) coated at 4 °C overnight; threefold dilutions of antibody 1 h at room temperature, then NGF-6xHis-biotin (0.5 ug/mL) 30 min; HRP-streptavidin, TMB; conditions: both partners purified
T1 construct: nerve growth factor (NGF), human; source: HEK293, transient transfection (pCAT1.0 vector)

[2] = biological target: T2, 6xHis-tagged human NGF (nerve growth factor) (Homo sapiens, UniProt P01138); experiment: ELISA; NGF-6xHis (2 ug/mL) coated at 4 °C overnight; antibodies in threefold series from 100 nM, 1 h; detected with HRP goat anti-human IgG (H + L), TMB, OD450; conditions: both partners purified
T2 construct: nerve growth factor (NGF), human; also called NGF-6xHis; human NGF-6xHis; source: HEK293, transient transfection (pCAT1.0 vector)
T2 sequence (P01138 19-241): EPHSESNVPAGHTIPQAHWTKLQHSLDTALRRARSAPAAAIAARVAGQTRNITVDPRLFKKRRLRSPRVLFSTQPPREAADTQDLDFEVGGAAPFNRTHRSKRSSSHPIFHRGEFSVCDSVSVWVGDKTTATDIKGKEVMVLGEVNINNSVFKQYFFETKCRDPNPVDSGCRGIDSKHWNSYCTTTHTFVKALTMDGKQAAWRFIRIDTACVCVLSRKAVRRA

T1 sequence (P01138 122-241): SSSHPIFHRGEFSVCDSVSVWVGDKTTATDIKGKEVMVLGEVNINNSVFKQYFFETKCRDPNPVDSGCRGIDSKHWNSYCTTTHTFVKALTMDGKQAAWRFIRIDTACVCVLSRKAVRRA

B1: tanezumab (antibody, V domains shown)
VH: QVQLQESGPGLVKPSETLSLTCTVSGFSLIGYDLNWIRQPPGKGLEWIGIIWGDGTTDYNSAVKSRVTISKDTSKNQFSLKLSSVTAADTAVYYCARGGYWYATSYYFDYWGQGTLVTVSS
VL: DIQMTQSPSSLSASVGDRVTITCRASQSISNNLNWYQQKPGKAPKLLIYYTSRFHSGVPSRFSGSGSGTDFTFTISSLQPEDIATYYCQQEHTLPYTFGQGTKLEIK
notes: Whole antibody, held on Protein A sensors
IC50 [1]: 1670 pM | EC50 [2]: 9.34 pM
